Substitutions are numbered along the chain they refer to. Names and notes keep the numbering of the source.

To fix the notation:
T1: EsCas13d, nuclease-dead (Eubacterium siraeum, UniProt B0MS50, R295A;H300A;R849A;H854A)
T1 sequence: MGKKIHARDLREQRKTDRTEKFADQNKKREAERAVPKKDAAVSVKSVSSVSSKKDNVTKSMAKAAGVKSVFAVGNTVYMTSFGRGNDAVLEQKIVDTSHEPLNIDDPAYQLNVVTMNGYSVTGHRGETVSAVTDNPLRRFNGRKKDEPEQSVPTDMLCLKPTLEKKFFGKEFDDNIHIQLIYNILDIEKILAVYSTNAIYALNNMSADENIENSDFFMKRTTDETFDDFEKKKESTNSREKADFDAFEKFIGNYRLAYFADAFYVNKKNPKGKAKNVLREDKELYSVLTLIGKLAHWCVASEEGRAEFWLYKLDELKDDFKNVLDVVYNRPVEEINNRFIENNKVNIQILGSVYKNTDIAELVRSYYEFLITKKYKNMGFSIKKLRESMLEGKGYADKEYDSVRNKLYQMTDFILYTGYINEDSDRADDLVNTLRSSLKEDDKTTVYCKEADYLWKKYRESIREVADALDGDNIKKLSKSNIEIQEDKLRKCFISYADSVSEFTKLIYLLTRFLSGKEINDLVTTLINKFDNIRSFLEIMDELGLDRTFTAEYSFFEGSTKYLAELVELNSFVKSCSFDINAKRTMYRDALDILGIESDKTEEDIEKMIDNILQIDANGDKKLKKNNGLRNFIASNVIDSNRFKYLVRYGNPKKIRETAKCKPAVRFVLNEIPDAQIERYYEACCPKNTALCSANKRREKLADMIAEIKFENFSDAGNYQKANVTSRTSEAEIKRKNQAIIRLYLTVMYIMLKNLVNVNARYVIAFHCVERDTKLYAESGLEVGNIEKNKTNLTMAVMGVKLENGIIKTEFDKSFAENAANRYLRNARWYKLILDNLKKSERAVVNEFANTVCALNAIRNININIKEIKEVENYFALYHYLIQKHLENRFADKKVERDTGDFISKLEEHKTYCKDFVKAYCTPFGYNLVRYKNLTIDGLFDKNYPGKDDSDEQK

B1: target 1 insC 3' of 22,insU 3' of 21 (mixed)
RNA 1: CACCCGUGCAAAAAUGCAGGGGUCUAAAACUGAGCGGAUAACCUCUCUAUGG
RNA 2: GGGAAUGGAUCCACAUCUACGAAUUCGUACCCUAUAGAGAGGUUAUCCGCUCACCGAGAUCGGAAGAGCACACGU
B2: target 1 insC 3' of 10,insU 3' of 2 (mixed)
RNA 1: B1 RNA 1
RNA 2: GGGAAUGGAUCCACAUCUACGAAUUCGUACCAUAGAGAGGUUCAUCCGCUCUACCGAGAUCGGAAGAGCACACGU
B3: target 1 A1C,C7U (mixed)
RNA 1: B1 RNA 1
RNA 2: GGGAAUGGAUCCACAUCUACGAAUUCGUACCAUAGAGAGGUUAUUCGCUCCCCGAGAUCGGAAGAGCACACGU
B4: target 1 insC 3' of 22,insG 3' of 20 (mixed)
RNA 1: B1 RNA 1
RNA 2: B1 RNA 2 with U33A, A34G
B5: target 1 G13A,G15C (mixed)
RNA 1: B1 RNA 1
RNA 2: B3 RNA 2 with G37C, G39A, U45C, C51A
B6: target 1 insA 3' of 10,insG 3' of 10 (mixed)
RNA 1: B1 RNA 1
RNA 2: B1 RNA 2 with C32A, U35G, A40G, G41U, G42U, U43A, U44G
B7: target 1 insG 3' of 20,insU 3' of 20 (mixed)
RNA 1: B1 RNA 1
RNA 2: B1 RNA 2 with C32A, U33G, A34U
B8: target 1 A1U,C7U (mixed)
RNA 1: B1 RNA 1
RNA 2: B3 RNA 2 with C51U
B9: target 1 insA 3' of 15,insA 3' of 5 (mixed)
RNA 1: B1 RNA 1
RNA 2: B2 RNA 2 with G39A, U41G, C43U, C49A, U50C, C51U, U52C
B10: target 1 G5C,A9C (mixed)
RNA 1: B1 RNA 1
RNA 2: B3 RNA 2 with A43C, U45C, G47C, C51A
B11: target 1 insG 3' of 6,insU 3' of 5 (mixed)
RNA 1: B1 RNA 1
RNA 2: B2 RNA 2 with C43A, A44U, U45C, C47G, C49U, U50C, C51U, U52C
B12: target 1 insC 3' of 18,insG 3' of 9 (mixed)
RNA 1: B1 RNA 1
RNA 2: GGGAAUGGAUCCACAUCUACGAAUUCGUACCAUACGAGAGGUUAGUCCGCUCACCGAGAUCGGAAGAGCACACGU
B13: target 1 insG 3' of 7,insG 3' of 4 (mixed)
RNA 1: B1 RNA 1
RNA 2: B2 RNA 2 with C43A, A44U, U45C, C46G, U50G, C51U, U52C
B14: target 1 C2U,A18U (mixed)
RNA 1: B1 RNA 1
RNA 2: B3 RNA 2 with A34U, U45C, C50U, C51A
B15: target 1 insU 3' of 20,insG 3' of 19 (mixed)
RNA 1: B1 RNA 1
RNA 2: B1 RNA 2 with C32A, A34U, U35G
B16: target 1 A1G,C7U (mixed)
RNA 1: B1 RNA 1
RNA 2: B3 RNA 2 with C51G
B17: target 1 insG 3' of 4 (mixed)
RNA 1: B1 RNA 1
RNA 2: GGGAAUGGAUCCACAUCUACGAAUUCGUACCAUAGAGAGGUUAUCCGCGUCACCGAGAUCGGAAGAGCACACGU
B18: target 1 insG 3' of 16,insU 3' of 5 (mixed)
RNA 1: B1 RNA 1
RNA 2: B12 RNA 2 with C35G, G36A, A37G, G45U, U46C, C48G, G49U
B19: target 1 C2A,C22U (mixed)
RNA 1: B1 RNA 1
RNA 2: B3 RNA 2 with C30U, U45C, C50A, C51A
B20: target 1 C6G,G12U (mixed)
RNA 1: B1 RNA 1
RNA 2: B3 RNA 2 with G40U, U45C, C46G, C51A
B21: target 1 insU 3' of 22,insG 3' of 3 (mixed)
RNA 1: B1 RNA 1
RNA 2: GGGAAUGGAUCCACAUCUACGAAUUCGUACUCAUAGAGAGGUUAUCCGCUGCACCGAGAUCGGAAGAGCACACGU
B22: target 1 insA 3' of 13,insG 3' of 6 (mixed)
RNA 1: B1 RNA 1
RNA 2: B2 RNA 2 with G40A, U41G, C43U, C49G, U50C, C51U, U52C
B23: target 1 insA 3' of 4,insU 3' of 2 (mixed)
RNA 1: B1 RNA 1
RNA 2: B2 RNA 2 with C43A, A44U, U45C, C47G, G48C, C49A
B24: target 1 insG 3' of 3,insU 3' of 1 (mixed)
RNA 1: B1 RNA 1
RNA 2: B2 RNA 2 with C43A, A44U, U45C, C47G, G48C, C49U, U50G, U52A, A53U
B25: target 1 complement block 2-13 (mixed)
RNA 1: B1 RNA 1
RNA 2: GGGAAUGGAUCCACAUCUACGAAUUCGUACCAUAGAGACCAAUAGGCGAGACCGAGAUCGGAAGAGCACACGU
B26: target 1 insG 3' of 2,insG 3' of 1 (mixed)
RNA 1: B1 RNA 1
RNA 2: GGGAAUGGAUCCACAUCUACGAAUUCGUACCAUAGAGAGGUUAUCCGCUCGAGCCGAGAUCGGAAGAGCACACGU
B27: target 1 insC 3' of 12,insU 3' of 6 (mixed)
RNA 1: B1 RNA 1
RNA 2: B2 RNA 2 with U41C, C43U, G48U, C49G, U50C, C51U, U52C
B28: target 1 insU 3' of 5,insC 3' of 1 (mixed)
RNA 1: B1 RNA 1
RNA 2: B26 RNA 2 with C48U, U49C, C50U, G51C, G53C
B29: target 1 U10A,A18C (mixed)
RNA 1: B1 RNA 1
RNA 2: B3 RNA 2 with A34C, U42A, U45C, C51A
B30: target 1 insA 3' of 12,insC 3' of 5 (mixed)
RNA 1: B1 RNA 1
RNA 2: B2 RNA 2 with U41A, C43U, U50C, C51U, U52C
B31: target 1 insU 3' of 5,insA 3' of 2 (mixed)
RNA 1: B1 RNA 1
RNA 2: B26 RNA 2 with C48U, U49C, C50U, G51C, G53A

The data set addresses T1, EsCas13d, nuclease-dead. Nature of the data set: crRNA (strand 1, pre-loaded); Mg2+; 40 mM Tris-HCl pH 7.5, 150 mM NaCl, 6 mM MgCl2, 1 mM DTT, 0.1% Tween-20, 0.2 mg/ml BSA; 25 C; 10 min per concentration, then washed. Particulars: tags: His6-TwinStrep-SUMO cleaved; N-terminal SNAP kept (SNAP-Surface 488); label: 3' end held by stalled T7 RNA polymerase.
One may read the Kd as the concentration at which binding is half-saturated. A low value points to tighter binding. B1: the Kd turned out to be 17.1 ± 1 nM.

The molecule B2 came in with a Kd of 23.9 ± 2.3 nM.

The molecule B3 registered a Kd of 9.6 ± 0.9 nM.

Take B4: the equilibrium dissociation constant (Kd) is 23.2 ± 2.3 nM. Against the preceding molecule, the Kd is about 2.4-fold higher.

B5 displayed a dissociation constant (Kd) of 36 ± 9 nM.

The molecule B6 had a Kd of 12.3 ± 0.6 nM.

B7 had a Kd of 28.4 ± 1.6 nM.

B8 returned a Kd of 9.1 ± 1.3 nM. Against the preceding molecule, the Kd is about 3.1-fold lower.

Regarding B9, the Kd turned out to be 15.9 ± 2 nM.

On to B10, for which binding was characterised by a dissociation constant (Kd) of 16.7 ± 0.8 nM.

B11 yielded a dissociation constant Kd of 5.6 ± 0.6 nM.

Take B12: the Kd amounted to 59 ± 11 nM.

Take B13: the Kd was found to be 6.23 ± 0.3 nM.

As to B14, the Kd turned out to be 21.2 ± 1.5 nM. This Kd lies about 3.4-fold higher than the previous one.

B15 came in with a Kd of 30.4 ± 1.8 nM.

The molecule B16 yielded an equilibrium dissociation constant (Kd) of 9.2 ± 0.7 nM. Against the preceding molecule, the Kd is about 3.3-fold lower.

B17 registered a dissociation constant Kd of 6.65 ± 0.25 nM.

In turn, B18 registered a Kd of 15.5 ± 1.4 nM.

Take B19: the Kd was roughly 30 nM.

B20 showed an equilibrium dissociation constant (Kd) of 13.7 ± 1.2 nM.

B21 registered a dissociation constant Kd of 25.3 ± 1.7 nM. Against the preceding molecule, the Kd is about 1.8-fold higher.

B22 came in with a Kd of 3.93 ± 0.27 nM. Against the preceding molecule, the Kd is about 6.4-fold lower.

B23 gave a Kd of 9.4 ± 0.9 nM.

B24: the Kd was 9.04 ± 0.35 nM.

Molecule B25 displayed a dissociation constant (Kd) of 74 ± 11 nM.

In turn, B26 had a Kd of 7 ± 0.6 nM.

Regarding B27, the Kd was determined as 16.4 ± 0.7 nM.

Take B28: the Kd amounted to 21.6 ± 2.4 nM.

For the molecule B29, the Kd turned out to be 100 ± 17 nM.

B30 displayed a dissociation constant Kd of 23.6 ± 2.1 nM.

In the case of B31, the dissociation constant Kd amounted to 11 ± 0.5 nM.
